In publication PMC5666114:

Biological target: Anbu-1 protein from Pseudomonas aeruginosa (Pa-Anbu), wild type (Pseudomonas aeruginosa PAO1)
Assay: SEC-MALS; static light scattering after Superdex S200 10/300 GL; 100 µl protein at 0.5, 1 or 2 mg/ml; 30 mM MOPS/NaOH pH 7.2, 150 mM NaCl; three independent experiments

“Anbu-1 protein from Pseudomonas aeruginosa (Pa-Anbu), wild type (natural protein)” was tested, and the stoichiometry N was 12.
